Source: PMC11984302

Experiments:
Settings in all cases: SICS: thrombin in 1 M KCl (or 150 mM KCl), pH 7.5, 30 min incubation, 300 mV; gel: 16% Tris-Glycine; temperature not stated
[1] = molecular target: T1, thrombin (human plasma, Sigma-Aldrich) (Homo sapiens) (UniProt P00734+P00734); test: single-molecule SICS nanopore
[2] = molecular target: T1, thrombin (human plasma, Sigma-Aldrich) (Homo sapiens); test: free translocation nanopore
[3] = molecular target: T1, thrombin (human plasma, Sigma-Aldrich) (Homo sapiens); test: single-molecule SICS nanopore; remark: listed apart in the source

In the case of “TCAGCTTGCGGAGATGCGATGGTTGGTGTGGTTGGATCGAGAAAAAGGTACGCCC / GGGCGTACCTTTTTCTCGATATCGCATCTCCGCAAGCTGA [extended TBA 1 in single-gap DNA carrier]”, the binding signal (% carriers with thrombin bound) [1] is reported as greater than 30, the binding signal (% events with thrombin bound) [2] is reported as 14.1 and the binding signal (% carriers with thrombin bound) [3] is reported as 52.
